No end group written: not given here.

The target in assay [1] is T1, human HER2(1223-1236)-Bi-PEG-amide (human, also: Bi-PEG (biotin-PEG), place not given here).
T1 construct: Injected as analyte singly grafted on streptavidin; also called HER2 peptide
T1 peptide: WDQDPPERGAPPST-NH2
Nature of the assay: SPR kinetic screening (Biacore A100); mAb captured by anti-mouse IgG Fc; peptide grafted on streptavidin as analyte; Langmuir model; anti-HER2 antibody, HER2 peptide. The procedure:
(§1) A BIACORE™ A100 instrument under control of the software version V1.1 is used. A BIACORE™ CMS chip is mounted into the instrument and is hydrodynamically addressed conditioned according to the manufacturer's instructions. As a running buffer an HBS-EP buffer is used (10 mM HEPES (pH 7.4), 150 mM NaCl, 1 mM EDTA, 0.05% (w/v) P20). A polyclonal rabbit anti-mouse IgG Fc capture antibody is immobilized at 30 μg/ml in 10 mM sodium acetate buffer (pH 4.5) to spots 1, 2, 4 and 5 in flow cells 1, 2, 3 and 4 at 10,000 RU. The antibody is covalently immobilized via NHS/EDC chemistry. The sensor is deactivated thereafter with a 1 M ethanolamine solution. Spots 1 and 5 are used for the determination and spots 2 and 4 are used as reference. Prior to application to the sensor chip the hybridoma supernatants containing mAbs are diluted 1:2 in HBS-EP buffer. The diluted solution is applied at a flow rate of 30 μl/min for 1 min. Immediately thereafter the analyte, human HER3(1242-1267)-Bi-PEG-amide (SEQ ID NO:26) or human HER2(1223-1236)-Bi-PEG-amide (SEQ ID NO:25), singly grafted on streptavidin, is injected at a flow rate of 30 μl/min for 2 min. Thereafter, the signal is recorded for 5 min dissociation time. The sensor is regenerated by injecting a 10 mM glycine-HCl solution (pH 1.7) for 2 min, at a flow rate of 30 μl/min.
A general note: Surface plasmon resonance follows binding to a sensor surface in real time, without labels.

The target of assay [2] is T2, human HER3(1242-1267)-Bi-PEG-amide (human, Bi-PEG (biotin-PEG); C-terminal amide).
T2 construct: Injected as analyte singly grafted on streptavidin; also called HER3 peptide
T2 peptide: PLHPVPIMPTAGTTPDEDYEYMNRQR
The experiment in a line: SPR kinetic screening (Biacore A100); mAb captured by anti-mouse IgG Fc; peptide grafted on streptavidin as analyte; Langmuir model; anti-HER3 antibody, HER3 peptide. The procedure: as §1

The target in assay [3] is T3, IGF-1R(1340-1366); Glu(Bi-PEG-1340]amid (PEG-linker with biotin bound via glutamic acid corresponding to position 1340; C-terminal amide).
T3 construct: also called IGF-1R peptide (biotinylated, non-phosphorylated); IGF-1R(1340-1366)PEG-Bi
T3 peptide: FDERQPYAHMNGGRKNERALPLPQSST
The experiment in a line: SPR (Biacore 2000, 25 C); hybridoma supernatant 1:2 over biotinylated peptide on SA chip. The procedure: (§2) Further, surface plasmon resonance was used to determine the antigen specificity. A BIACORE™ 2000 instrument (GE Healthcare) was used with a BIACORE™ SA sensor mounted into the system at T=25° C. and was preconditioned at 100 μl/min with 3×1 min injection of 1 M NaCl in 50 mM NaOH and 1 min 10 mM HCl. The system buffer was HBS-ET (10 mM HEPES pH 7.4, 150 mM NaCl, 1 mM EDTA, 0.05% TWEEN® 20). The sample buffer was the system buffer+1 mg/ml CMD (Carboxymethyldextrane, Sigma).
(§3) Subsequently, biotinylated peptides were captured on the SA surface in the respective flow cells. The flow cells finally were saturated with 2 μM d-biotin. […] Flow cell 1 served as a reference. A blank buffer injection was used instead of an antigen injection to double reference the data by buffer signal subtraction. The data was evaluated according to the BIACORE™ evaluation software 1.1.1. The signal height was measured at the end of the injection time, Binding Late (RU).

For assay [4], the target named is T4, IGF-1R(1340-1366)[1346-pTyr; Glu(Bi-PEG-1340]amid (phosphotyrosine at 1346; PEG-linker with biotin bound via glutamic acid corresponding to position 1340; C-terminal amide).
T4 construct: also called pIGF-1R peptide (biotinylated); phosphorylated IGF-1R peptide
T4 peptide: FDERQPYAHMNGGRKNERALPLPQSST
The assay is described as above. On the procedure: as §2, §3

Assay [5] deals with Bi-InsulinR(1356-1382)p1361 (phosphotyrosine at 1361; biotin). The description is as above. On the procedure: as §2, §3
Bi-InsulinR(1356-1382)p1361 (phosphotyrosine at 1361; biotin), sequence (peptide, as listed by the source): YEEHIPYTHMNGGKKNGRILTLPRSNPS

B1: antibody 4.1.43 (antibody, V domains shown)
VH: EVQLQQSGPVLVKPGASVKMSCRPSGYTFTDYNMHWVKQSHEKSLEWIGYINPKNGIISYNQKFKDKATLTVNKSSRTAYMELRSLTSEDSAVYFCAGDYWGQGTSVTVSS
VL: DVVMTQTPLSLPVSLGDQASISCRSSQSLVHSNGNTYLHWYLQKPGQSPKLLISKVSNRFSGVPDRFSGSGSGTDFTLKISRVEAEDLGVYFCSQSIHLPWTFGGGTKLEIK
notes: Mouse monoclonal antibody, tested from hybridoma supernatant captured by anti-mouse IgG Fc; also called selected antibody directed against HER2
One may read the koff as the first-order rate constant of dissociation. A low value points to a long-lived complex. The molecule B1 gave a koff in assay [1] of 0.000963 s⁻¹.

B2: antibody 7.2.32 (antibody, V domains shown)
VH: EVQLQESGGGLVQPKGSLQLSCAASGFTFNTYAMHWVRQAPGKGLEWVARIRTESSDYATDYADSVKDRFIISRDDSQNMLYLQMNNLKSEDTAIYYCVRSSGFDYWGQGTTLTVSS
VL: DIQMTQSPSLPVSLGDQASISCRSSQSLVHDNGNTYLHWFLQKPGQSPKLLIYKVSNRFSGVPDRFGGSGSGTDFTLKISGVEAEDLGVYFCSQGTHVPTFGGGTKLEIK
notes: Mouse monoclonal antibody, tested from hybridoma supernatant captured by anti-mouse IgG Fc; also called selected antibody directed against HER3
The molecule B2 came in with a koff in assay [2] of 0.0023 s⁻¹.

B3: mAb 1.4.168 (antibody, V domains shown)
VH: DVKLVESGGGLVKPGGSLKLSCAASGFTFSDYPMSWVRQTPEKRLEWVATITTGGTYTYYPDSIKGRFTISRDNAKNTLYLQMGSLQSEDAAMYYCTRVKTDLWWGLAYWGQGTLVTVSA
VL: QLVLTQSSSASFSLGASAKLTCTLSSQHSTYTIEWYQQQPLKPPKYVMELKKDGSHTTGDGIPDRFSGSSSGADRYLSISNIQPEDESIYICGVGDTIKEQFVYVFGGGTKVTVLG
notes: Murine monoclonal IgG from hybridoma; also called M-1.4.168-IgG; M-1.004.168-IgG
As for B3, the “Binding Late (RU)” value was found to be 199 RU in assay [3], 265 RU in assay [4] and 0 RU in assay [5].

Source of the values: US20170275380A1 (ROCHE DIAGNOSTICS OPERATIONS, published 2017).
